Measurements as given in patent US20100168026A1, “INSULIN SECRETION INDUCER, AND ACCELERATOR FOR INCREASING THE NUMBER OF PANCREATIC BETA-CELLS” (priority 2007, published 2010).

What was measured:
pancreatic β-cells [1] = test: Surface ratio of β-cells to α-cells in STZ mice administered synthetic polypeptides A-C; type: in vivo, C57BL/6 mouse; conditions: STZ mouse, 25 nmol/kg body weight i.p. twice daily for eight weeks; vs saline; FIG. 8
Procedure: In the sixth embodiment, the action of synthetic polypeptides A-C on Type-1 diabetes STZ model mice was confirmed in the same manner as the third embodiment.
Firstly a 7-week old C57BL/6 mouse (body weight approximately 18-20 g) was fasted for 18 hours from day 0 and then streptozocin dissolved in saline (100 mg/kg body weight) was administered into the interperitoneal region and free feeding was immediately allowed. […] The serum blood-glucose level was measured on the seventh day. A fasting blood glucose level of greater than or equal to 150 mg/dL was determined as diabetes and the experiment described hereafter was conducted. STZ mice determined to have diabetes were administered into the interperitoneal region twice daily the polypeptide A-C (25 nmol/kg body weight) dissolved in saline for eight weeks from the seventh day.
The pancreas of the STZ mice was removed and after fixing the tissue with paraformaldehyde, the tissue sample preparation office at University of Tsukuba was employed to prepare a paraffin-embedded section. […] The section was thereafter mounted on a fluorescence photobleaching prevention agent (VECTASHILD Mounting Medium; Vector) and observed through a fluorescence microscope (BZ-8000; KEYENCE) to measure the surface ratio (β-cells/α-cells) of β-cells to α-cells. […]

MIN6 cells = test: Glucose-stimulated insulin secretion (GSIS) in MIN6 cells stimulated with culture supernatant of CF266-transfected HEK293T cells; type: cell-based, murine; conditions: culture supernatant of transfected HEK293T cells : KRBH buffer 1:1 (v/v), stimulated one hour, vs Mock, FIG. 2
Procedure: In Embodiment 1, an action was confirmed with respect to MIN6 cells using a culture supernatant of a HEK293T cell strain originating from fetal kidney epithelial cells transfected with CF266.
Firstly, HEK293T cells subcultured in DMEM media enriched with 5% FCS and an antibiotic (penicillin 100 U/mL, streptomycin […]) were plated onto a 10 cm dish at a concentration of 1×10^6 cells/dish. On the following day, HEK292T cells were transfected with an expression vector for mCF266 (pCAGGS-mCF266) using a FuGENE6 (Roche) and mCF266 was forcibly expressed. After 24 hours, the media was exchanged for Opti-MEM media and after a further 24 hours, a culture supernatant was recovered.
Next, MIN6 cells subcultured in DMEM media (high glucose, Invitrogen) enriched with 15% FCS, an antibiotic (penicillin 100 U/mL, streptomycin […]) and 2-mercaptoethanol were plated onto a 24-well plate at a concentration of 3×10^5 cells/well. On the following day, 0.5 mL/well KRBH buffer solution (2.8 mM glucose) was added and pre-culturing was conducted for 30 minutes. Then 0.5 mL/well of a mixed solution of the above culture supernatant and KRBH buffer solution (1:1(v/v)) was added and stimulated for one hour. Then glucose-stimulated insulin secretion (GSIS) was measured for the MIN6 cells. […]

pancreatic β-cells [2] = test: Surface ratio of β-cells to α-cells in pancreas sections of STZ mice given hCF266(27V) adenovirus; type: in vivo, C57BL/6 mouse; conditions: STZ mouse, adenoviral expression; vs Ad GFP or Ad (−); FIG. 6
Procedure: (§1) Firstly a 7-week old C57BL/6 mouse (body weight approximately 18-20 g) was fasted for 18 hours from day 0 and then streptozocin dissolved in saline (100 mg/kg body weight) was administered into the interperitoneal region and free feeding was immediately allowed. From the following day, after fasted for 18 hours the same amount of streptozocin was re-administered on the second day into the interperitoneal region and free feeding was immediately allowed. The serum blood-glucose level was measured on the seventh day. A fasting blood glucose level of greater than or equal to 150 mg/dL was determined to be diabetes and the experiment described hereafter was conducted. On the same day, a recombinant adenovirus (prepared using ViraPower which is a tradename of Invitrogen) constructed by linking hCF266(27V) to a CAG promoter was intravenously injected at a concentration of 1×10^9 PFU/mL into the caudal vein of a STZ mouse determined to be suffering diabetes. On the twelfth day, an oral glucose tolerance test (OGTT) was performed by periodically taking blood and measuring the blood-glucose level of the serum and the insulin level.
The pancreas of the STZ mice was removed and after fixing the tissue with paraformaldehyde, the tissue sample preparation office at University of Tsukuba was employed to prepare a paraffin-embedded section. […]

[3] = tested on: type-1 diabetes STZ model mouse; test: Oral glucose tolerance test after adenoviral expression of hCF266(27V) in STZ model mouse; type: in vivo, C57BL/6 mouse; conditions: adenovirus i.v. 1×10^9 PFU/mL on day 7, OGTT on twelfth day, vs Ad GFP or Ad (−), FIG. 5
Procedure: In the fourth embodiment, an adenoviral vector expressing hCF266(27V) was used to confirm the action of hCF266(27V) with respect to an STZ model mouse which is a type-1 diabetes model mouse.
as §1, with “level. […]” for “level.”

pancreatic β-cells [4] = test: Surface area and number of β-cells (islets of Langerhans) in mCF266 transgenic mice; type: in vivo, mouse
Procedure: Firstly, an mCF266 expression vector (pCAGGS-mCF266) was constructed by linking mCF266 to a CAG promoter and linearized. The University of Tsukuba Laboratory Animal Resource Center was employed to produce a transgenic mouse. The introduced gene was confirmed using PCR and southern blotting and mating for five generations with C57BL/6 mice was conducted.
The pancreas of the transgenic mice was removed and after fixing the tissue with paraformaldehyde, the tissue sample preparation office at University of Tsukuba was employed to prepare a paraffin-embedded section. After the section was removed from paraffin, antigen activation was performed for 30 minutes at room temperature using 0.1% Triton X-100 and then blocking was performed for one hour at room temperature using 5% skim milk. After blocking, a primary antibody reaction was performed overnight at 4° C. using polyclonal anti-insulin guinea pig antibody (Daco) and polyclonal anti-glucagon rabbit antibody (Daco). The section was washed using Tris-buffered saline containing 0.1% Tween20 (TBST). […] The section was thereafter mounted on a fluorescence photobleaching prevention agent (VECTASHILD Mounting Medium; Vector) and observed through a fluorescence microscope (BZ-8000; KEYENCE) to measure the surface area of islets of Langerhans stained by insulin relative to the pancreas surface area on the section. […]

[5] = tested on: type-2 diabetes model KK/Ay mouse; test: Intravenous glucose tolerance test after adenoviral expression of mCF266 in KK/Ay mouse; type: in vivo; conditions: adenoviral vector i.v. 6×10^9 PFU/mL, after four days, vs Ad GFP
Description: In the second embodiment, an adenoviral vector expressing mCF266 was used to confirm the action of mCF266 with respect to a KK/Ay mouse which is a type-2 diabetes model mouse.
Firstly an adenoviral vector (prepared using ViraPower which is a tradename of Invitrogen) constructed by linking mCF266 to a CAG promoter was intravenously injected at a concentration of 6×10^9 PFU/mL into the caudal vein of a 18-week old KK/Ay mouse (body weight approximately 47-51 g) given a high-fat high-sucrose diet. After four days, an intravenous glucose tolerance test (i.v. GTT) was performed by periodically taking blood and measuring the blood-glucose level of the serum and the insulin level.
Consequently expression of mCF266 is shown to induce insulin secretion.

ALYCMLISIQALLKGPLMC (Human) [polypeptide A, 19 amino acid fragment, 98-116th amino acids of the hCF266(27V) polypeptide]
surface ratio (β-cells/α-cells) β-cells to α-cells (pancreatic β-cells [1]): excellent

B1: hCF266(27V): Human DNA SEQ. ID. No. 4 encoding TM4SF20, 27th amino acid valine; tested as transfected-cell supernatant and adenoviral vector (protein)
chain: MTCCEGWTSCNGFSLLVLLLLGVVLNVIPLIVSLVEEDQFSQNPISCFEWWFPGIIGAGLMAIPATTMSLTARKRACCNNRTGMFLSSLFSVITVIGALYCMLISIQALLKGPLMCNSPSNSNANCEFSLKNISDIHPESFNLQWFFNDSCAPPTGFNKPTSNDTMASGWRASSFHFDSEENKHRLIHFSVFLGLLLVGILEVLFGLSQIVIGFLGCLCGVSKRRSQIV
modifications: Human
notes: ID; No. 4 encoding TM4SF20, 27th amino acid valine; tested as transfected-cell supernatant and adenoviral vector
glucose-stimulated insulin secretion (GSIS) (MIN6 cells): excellent action | surface ratio (β-cells/α-cells) of β cells to α cells (pancreatic β-cells [2]): significantly increased | blood glucose level (OGTT) [3]: significantly reduced

B2: mCF266: Murine DNA SEQ. ID. No. 1 encoding membrane protein Tm4sf20; tested as transfected-cell supernatant, adenoviral vector and transgene (protein)
chain: MTCCEGWTSCNGFSLLILILLGVVINCIPLGISLVEADSTSQNPISCYEWWFPGIIGAGLMAIPATTMSLAARKRACCNNKTGMFLSSLFSVITVVGAVYCMLVSLQALLEGPLICNTQANSTVTCEFSLKNLSKFDPESFNLLWFFNGTCVSPTDFKNPTINNMVSNWKIPNSNSEEDRHRIFHFSVFMSLLLVGILELLFGLSQILIGFLGCLCGVSQRRSQIV
modifications: Mouse
notes: ID; No. 1 encoding membrane protein Tm4sf20; tested as transfected-cell supernatant, adenoviral vector and transgene
number of β-cells (pancreatic β-cells [4]; transgenic mice hetero (+/−) or homo (+/+) vs wild-type (normalized to 1), FIG. 7B): conspicuously increased | surface area of β-cells (pancreatic β-cells [4]; transgenic mice hetero (+/−) or homo (+/+) vs wild-type, FIG. 7A): conspicuously increased | blood-glucose level (i.v. GTT) ([5]; FIG. 3A): only a slightly low tendency | insulin value (i.v. GTT) ([5]; FIG. 3B): significantly higher
